# Test results published in IntAct's records for PubMed 11069292.
# B1: Transcription factor PIF3 (Arabidopsis thaliana (Mouse-ear cress)), O80536 (parent)
# chain: MPLFELFRLTKAKLESAQDRNPSPPVDEVVELVWENGQISTQSQSSRSRNIPPPQANSSRAREIGNGSKTTMVDEIPMSVPSLMTGLSQDDDFVPWLNHHPSLDGYCSDFLRDVSSPVTVNEQESDMAVNQTAFPLFQRRKDGNESAPAASSSQYNGFQSHSLYGSDRARDLPSQQTNPDRFTQTQEPLITSNKPSLVNFSHFLRPATFAKTTNNNLHDTKEKSPQSPPNVFQTRVLGAKDSEDKVLNESVASATPKDNQKACLISEDSCRKDQESEKAVVCSSVGSGNSLDGPSESPSLSLKRKHSNIQDIDCHSEDVEEESGDGRKEAGPSRTGLGSKRSRSAEVHNLSERRRRDRINEKMRALQELIPNCNKVDKASMLDEAIEYLKSLQLQVQIMSMASGYYLPPAVMFPPGMGHYPAAAAAMAMGMGMPYAMGLPDLSRGGSSVNHGPQFQVSGMQQQPVAMGIPRVSGGGIFAGSSTIGNGSTRDLSGSKDQTTTNNNSNLKPIKRKQGSSDQFCGSS
# Variants of: B1
# Conditions: with phyb_arath PHYB
row,Variant,effect of a mutation on the interaction
1,MPLFELFRLTKAKLESAQDRNPSPPVDEVVELVWENGQISTQSQSSRSRNIPPPQANSSRAREIGNGSKTTMVDEIPMSVPSLMTGLSQDDDFVPWLNHHPSLDGYCSDFLRDVSSPVTVNEQESDMAVNQTAFPLFQRRKDGNESAPAASSSQYNGFQSHSLYVSDRARDLPSQQTNPDRFTQTQEPLITSNKPSLVNFSHFLRPATFAKTTNNNLHDTKEKSPQSPPNVFQTRVLGAKDSEDKVLNESVASATPKDNQKACLISEDSCRKDQESEKAVVCSSVGSGNSLDGPSESPSLSLKRKHSNIQDIDCHSEDVEEESGDGRKEAGPSRTGLGSKRSRSAEVHNLSERRRRDRINEKMRALQELIPNCNKVDKASMLDEAIEYLKSLQLQVQIMSMASGYYLPPAVMFPPGMGHYPAAAAAMAMGMGMPYAMGLPDLSRGGSSVNHGPQFQVSGMQQQPVAMGIPRVSGGGIFAGSSTIGNGSTRDLSGSKDQTTTNNNSNLKPIKRKQGSSDQFCGSS [G165V],decreasing interaction
